Patent publication US20140356376

What was measured:
[1] = molecular target: thioFAB 4497 MP-LAFAA-QSY7
[2] = molecular target: thioFAB 4497 MP-LAFGA-QSY7
[3] = molecular target: thio-S4497 HC v1-MP-LAFG-PABC-(piperazinoBOR) AAC-193

B1: staphopain A (protein)
chain: YNEQYVNKLENFKIRETQGNNGWCAGYTMSALLNATYNTNKYHAEAVMRFLHPNLQGQQFQFTGLTPREMIYFEQTQGRSPQLLNRMTTYNEVDNLTKNNKGIAILGSRVESRNGMHAGHAMAVVGNAKLNNGQEVIIIWNPWDNGFMTQDAKNNVIPVSNGDHYQWYSSIYGY
Percent cleavage pH 7.2 [1]: 23%
Percent cleavage pH 7.2 [2]: 38%
Percent cleavage pH 5 [3]: 100%
Percent cleavage pH 7.2 [3]: 46%
